The target in one test is T1, cynomolgus monkey CCR8 (cynomolgus monkey, UniProt G7NYJ2 1-355).
T1 construct: whole, on cells; also called CynoCCR8
The test can be described thus: FACS, CHO-K1-CynoCCR8 cells. On the procedure: (§1) Cells overexpressing cynomolgus monkey CCR8, CHO-K1-CynoCCR8, were digested with pancreatin, counted and resuspended to a cell density of 1E6 cells/mL. The cell suspension was added to a 96-well V-bottom plate at 100 μL/well and centrifuged at 300 g for 5 min, and the supernatant was discarded. The anti-CCR8 antibodies provided herein was used as a primary antibody and diluted in a 5-fold gradient with an FACS buffer (DPBS containing 2% FBS) from 200 nM. The diluted primary antibody was added at 100 μL/well to resuspend the cells, and the mixture was incubated at 4° C. for 1 h. The plate was washed twice with DPBS and centrifuged at 300×g for 5 min, and the supernatant was discarded. The secondary antibody diluted in a 1:1000 ratio with an FACS buffer was added at 100 μL/well to suspend the cells, and the mixture was incubated at 4° C. for 40 min. The plate was washed twice with DPBS and centrifuged at 300×g for 5 min, and the supernatant was discarded. DPBS was added at 200 μL/well to suspend the cells, and the mixture was loaded on an FACS machine for analysis.

For test [1], the target named is T2, human CCR8 (human, UniProt P51685 1-355).
T2 construct: whole, on cells; construct used for the overexpressing cell lines is not described; also called hCCR8
T2 sequence (P51685 whole entry): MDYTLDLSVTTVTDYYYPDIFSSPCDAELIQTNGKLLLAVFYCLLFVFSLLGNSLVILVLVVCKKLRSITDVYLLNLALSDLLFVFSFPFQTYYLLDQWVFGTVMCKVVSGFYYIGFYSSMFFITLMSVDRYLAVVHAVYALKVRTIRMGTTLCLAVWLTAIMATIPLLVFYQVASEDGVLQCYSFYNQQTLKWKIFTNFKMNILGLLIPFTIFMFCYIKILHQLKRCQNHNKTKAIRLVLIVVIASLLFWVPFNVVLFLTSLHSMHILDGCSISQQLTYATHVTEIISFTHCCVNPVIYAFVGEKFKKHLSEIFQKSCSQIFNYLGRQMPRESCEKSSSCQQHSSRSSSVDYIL
Briefly: FACS, CHO-K1-hCCR8 cells. As for the experimental part:
as §1, with “human CCR8” for “cynomolgus monkey CCR8, CHO-K1-CynoCCR8,”
For orientation: A flow cytometer gives signals particle by particle.

Test [2] concerns the target T2, human CCR8. The test can be described thus: FACS, CHO-K1-hCCR8 cells. As for the experimental part: as §1, with “human CCR8” for “cynomolgus monkey CCR8, CHO-K1-CynoCCR8,”
The source holds these as a separate data set.

Test [3] deals with T2, human CCR8. The test can be described thus: FACS, CHO-K1-hCCR8 cells. On the procedure: as §1, with “human CCR8” for “cynomolgus monkey CCR8, CHO-K1-CynoCCR8,”
The source holds these as a separate data set.

Read-outs that look alike come from different tables or passages of the source.

What is called EC50 is the midpoint of the concentration-response curve.

T1 sequence (G7NYJ2 entry or part of it): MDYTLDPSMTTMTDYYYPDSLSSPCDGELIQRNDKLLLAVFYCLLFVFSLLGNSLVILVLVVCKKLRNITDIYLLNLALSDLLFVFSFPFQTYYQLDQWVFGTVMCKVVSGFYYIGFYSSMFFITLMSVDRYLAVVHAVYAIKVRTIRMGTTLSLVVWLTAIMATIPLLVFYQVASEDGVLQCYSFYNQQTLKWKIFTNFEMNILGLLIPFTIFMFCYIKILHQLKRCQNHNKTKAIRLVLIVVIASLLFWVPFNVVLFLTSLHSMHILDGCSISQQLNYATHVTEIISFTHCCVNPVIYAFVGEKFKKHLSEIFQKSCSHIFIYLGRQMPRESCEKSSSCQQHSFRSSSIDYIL

B1: PR004519 (antibody, human IgG1, kappa, V domains shown)
VH: EVQLVESGGGLVKPGGSLRLSCAASGFTFNTYAMNWVRQAPGKGLEWVGRIRSKSNNYATYYADSVKDRFTISRDDSKSTLYLQMNSLKTEDTAVYYCVRGKENGNYYAMDFWGQGTTVTVSS
VL: DIVMTQSPLSLPVTPGEPASISCRSSKSLLHSNGKIYLYWFLQKPGQSPQLLIYRMSNLASGVPDRFSGSGSGTDFTLKISRVEAEDVGVYYCMQHLEYPLTFGQGTKLEIKR
notes: humanized variant of PR004128, IgG1 with DE mutation
On to B1, for which the EC50 was found to be 4.17 nM with cynomolgus monkey CCR8 and 0.67 nM in the test with human CCR8 [1].

B2: PR004669 (antibody, human IgG1, kappa)
heavy: not shown
light: DIVMTQSPLSLPVTLGQPASISCRSSKSLLHSNGKIYLYWFQQRPGQSPRLLIYRMSNLASGVPDRFSGSGSGTDFTLKISRVEAEDVGVYYCMQHLEYPLTFGQGTKLEIKRTVAAPSVFIFPPSDEQLKSGTASVVCLLNNFYPREAKVQWKVDNALQSGNSQESVTEQDSKDSTYSLSSTLTLSKADYEKHKVYACEVTHQGLSSPVTKSFNRGEC
notes: humanized; same VH/VL as PR004525, other heavy chain entry
Take B2: the values for the EC50 in the test with cynomolgus monkey CCR8 and in the test with human CCR8 [2] were 1.61 nM and 0.72 nM, respectively.

B3: PR004523 (antibody, human IgG1, kappa, V domains shown)
VH: EVQLVESGGGLVQPGGSLRLSCAASGFTFNTYAMNWVRQAPGKGLEWVSRIRSKSNNYATYYADSVKDRFTISRDDSKSTLYLQMNSLRAEDTAVYYCVRGKENGNYYAMDFWGQGTTVTVSS
VL: DIVMTQSPLSLPVTPGEPASISCRSSKSLLHSNGNTYLYWFLQKPGQSPQLLIYRMSNLASGVPDRFSGSGSGTDFTLKISRVEAEDVGVYYCMQHLEYPLTFGQGTKLEIKR
notes: as for B1
For the molecule B3, the half-maximal effective concentration (EC50) is 4.42 nM with cynomolgus monkey CCR8 and 1 nM with human CCR8 [1].

B4: PR004526 (antibody, human IgG1, kappa, V domains shown)
VH: EVQLVESGGGLVQPGGSLRLSCAASGFTFNTYAMNWVRQAPGKGLEWVSRIRSKSNNYATYYADSVKDRFTISRDDSKSTLYLQMNSLRAEDTAVYYCVRGKENGNYYAMDFWGQGTTVTVSS
VL: DIVMTQSPLSLPVTLGQPASISCRSSKSLLHSNGKIYLYWFQQRPGQSPRLLIYRMSNLASGVPDRFSGSGSGTDFTLKISRVEAEDVGVYYCMQHLEYPLTFGQGTKLEIKR
notes: as for B1
With B4, the EC50 with cynomolgus monkey CCR8 was found to be 4.01 nM; with human CCR8 [1], 1.03 nM.

B5: PR004664 (antibody, human IgG1, kappa, V domains shown)
VH: EVQLVESGGGLVKPGGSLRLSCAASGFTFSTYAMNWVRQAPGKGLEWVGRIRSKSNNYATYYADSVKDRFTISRDDSKSTLYLQMNSLKTEDTAVYYCVRGKENANYYAMDFWGQGTTVTVSS
VL: DIVMTQSPLSLPVTLGQPASISCRSSKSLLHSNGKIYLYWFQQRPGQSPRLLIYRMSNLASGVPDRFSGSGSGTDFTLKISRVEAEDVGVYYCMQHLEYPLTFGQGTKLEIKR
notes: PTM site-removed humanized variant of PR004128, IgG1 with DE mutation
Consider B5, for which the EC50 with human CCR8 [3] stood at 0.365 nM.

B6: PR004524 (antibody, human IgG1, kappa, V domains shown)
VH: EVQLVESGGGLVQPGGSLKLSCAASGFTFNTYAMNWVRQASGKGLEWVGRIRSKSNNYATYYADSVKDRFTISRDDSKSTLYLQMNSLKTEDTAVYYCVRGKENGNYYAMDFWGQGTTVTVSS
VL: DIVMTQSPLSLPVTPGEPASISCRSSKSLLHSNGNTYLYWFLQKPGQSPQLLIYRMSNLASGVPDRFSGSGSGTDFTLKISRVEAEDVGVYYCMQHLEYPLTFGQGTKLEIKR
notes: as for B1
With B6, the EC50 with cynomolgus monkey CCR8 amounted to 4.79 nM; in the test with human CCR8 [1], 0.17 nM.

B7: PR004521 (antibody, human IgG1, kappa, V domains shown)
VH: EVQLVESGGGLVQPGGSLKLSCAASGFTFNTYAMNWVRQASGKGLEWVGRIRSKSNNYATYYADSVKDRFTISRDDSKSTLYLQMNSLKTEDTAVYYCVRGKENGNYYAMDFWGQGTTVTVSS
VL: DIVMTQSPLSLPVTPGEPASISCRSSKSLLHSNGKIYLYWFLQKPGQSPQLLIYRMSNLASGVPDRFSGSGSGTDFTLKISRVEAEDVGVYYCMQHLEYPLTFGQGTKLEIKR
notes: as for B1
Regarding B7, the results for the EC50 with cynomolgus monkey CCR8 and in the test with human CCR8 [1] were 6.22 nM and 0.37 nM, respectively.

B8: PR004660 (antibody, human IgG1, kappa, V domains shown)
VH: EVQLVESGGGLVQPGGSLRLSCAASGFTFSTYAMNWVRQAPGKGLEWVSRIRSKSNNYATYYADSVKDRFTISRDDSKSTLYLQMNSLRAEDTAVYYCVRGKENANYYAMDFWGQGTTVTVSS
VL: DIVMTQSPLSLPVTPGEPASISCRSSKSLLHSNGKIYLYWFLQKPGQSPQLLIYRMSNLASGVPDRFSGSGSGTDFTLKISRVEAEDVGVYYCMQHLEYPLTFGQGTKLEIKR
notes: as for B5
B8: a half-maximal effect in the test with human CCR8 [3] (EC50) was put at 0.49 nM.

B9: PR004665 (antibody, human IgG1, kappa, V domains shown)
VH: EVQLVESGGGLVKPGGSLRLSCAASGFTFSTYAMNWVRQAPGKGLEWVGRIRSKSNNYATYYADSVKDRFTISRDDSKSTLYLQMNSLKTEDTAVYYCVRGKEQGNYYAMDFWGQGTTVTVSS
VL: DIVMTQSPLSLPVTLGQPASISCRSSKSLLHSNGKIYLYWFQQRPGQSPRLLIYRMSNLASGVPDRFSGSGSGTDFTLKISRVEAEDVGVYYCMQHLEYPLTFGQGTKLEIKR
notes: as for B5
For B9, it took 0.341 nM to reach a half-maximal effect with human CCR8 [3] (EC50).

B10: PR004527 (antibody, human IgG1, kappa, V domains shown)
VH: EVQLVESGGGLVQPGGSLKLSCAASGFTFNTYAMNWVRQASGKGLEWVGRIRSKSNNYATYYADSVKDRFTISRDDSKSTLYLQMNSLKTEDTAVYYCVRGKENGNYYAMDFWGQGTTVTVSS
VL: DIVMTQSPLSLPVTLGQPASISCRSSKSLLHSNGKIYLYWFQQRPGQSPRLLIYRMSNLASGVPDRFSGSGSGTDFTLKISRVEAEDVGVYYCMQHLEYPLTFGQGTKLEIKR
notes: as for B1
With B10, the figures for the EC50 with cynomolgus monkey CCR8 and with human CCR8 [1] were 7.33 nM and 0.73 nM, respectively.

B11: PR004520 (antibody, human IgG1, kappa)
heavy: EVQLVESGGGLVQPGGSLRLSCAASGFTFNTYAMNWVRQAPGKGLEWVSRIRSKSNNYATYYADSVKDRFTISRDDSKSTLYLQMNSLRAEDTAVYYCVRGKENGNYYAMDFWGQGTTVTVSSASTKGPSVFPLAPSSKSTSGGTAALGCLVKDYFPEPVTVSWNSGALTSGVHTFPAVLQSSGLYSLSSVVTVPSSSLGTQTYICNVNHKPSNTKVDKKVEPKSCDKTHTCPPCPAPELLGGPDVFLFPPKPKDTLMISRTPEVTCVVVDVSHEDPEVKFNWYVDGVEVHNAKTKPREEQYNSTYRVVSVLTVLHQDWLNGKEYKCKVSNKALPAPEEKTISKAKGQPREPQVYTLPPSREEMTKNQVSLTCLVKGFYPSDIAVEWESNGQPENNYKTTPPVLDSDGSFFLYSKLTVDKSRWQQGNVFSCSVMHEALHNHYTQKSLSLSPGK
light: DIVMTQSPLSLPVTPGEPASISCRSSKSLLHSNGKIYLYWFLQKPGQSPQLLIYRMSNLASGVPDRFSGSGSGTDFTLKISRVEAEDVGVYYCMQHLEYPLTFGQGTKLEIKRTVAAPSVFIFPPSDEQLKSGTASVVCLLNNFYPREAKVQWKVDNALQSGNSQESVTEQDSKDSTYSLSSTLTLSKADYEKHKVYACEVTHQGLSSPVTKSFNRGEC
notes: as for B1
For the molecule B11, the results for the 50% effective concentration (EC50) in the test with cynomolgus monkey CCR8 and with human CCR8 [1] were 4.6 nM and 1.31 nM, respectively.

B12: PR004661 (antibody, human IgG1, kappa, V domains shown)
VH: EVQLVESGGGLVQPGGSLRLSCAASGFTFSTYAMNWVRQAPGKGLEWVSRIRSKSNNYATYYADSVKDRFTISRDDSKSTLYLQMNSLRAEDTAVYYCVRGKEQGNYYAMDFWGQGTTVTVSS
VL: DIVMTQSPLSLPVTPGEPASISCRSSKSLLHSNGKIYLYWFLQKPGQSPQLLIYRMSNLASGVPDRFSGSGSGTDFTLKISRVEAEDVGVYYCMQHLEYPLTFGQGTKLEIKR
notes: as for B5
In the test with human CCR8 [3], B12 returned a half-maximal effective concentration (EC50) of 0.456 nM.

B13: PR004663 (antibody, human IgG1, kappa, V domains shown)
VH: EVQLVESGGGLVQPGGSLRLSCAASGFTFSTYAMNWVRQAPGKGLEWVSRIRSKSNNYATYYADSVKDRFTISRDDSKSTLYLQMNSLRAEDTAVYYCVRGKEQGNYYAMDFWGQGTTVTVSS
VL: DIVMTQSPLSLPVTPGEPASISCRSSKSLLHSNAKIYLYWFLQKPGQSPQLLIYRMSNLASGVPDRFSGSGSGTDFTLKISRVEAEDVGVYYCMQHLEYPLTFGQGTKLEIKR
notes: as for B5
As for B13, in the test with human CCR8 [3], the concentration giving a half-maximal response (EC50) came out at 0.286 nM.

B14: PR004525 (antibody, human IgG1, kappa)
heavy: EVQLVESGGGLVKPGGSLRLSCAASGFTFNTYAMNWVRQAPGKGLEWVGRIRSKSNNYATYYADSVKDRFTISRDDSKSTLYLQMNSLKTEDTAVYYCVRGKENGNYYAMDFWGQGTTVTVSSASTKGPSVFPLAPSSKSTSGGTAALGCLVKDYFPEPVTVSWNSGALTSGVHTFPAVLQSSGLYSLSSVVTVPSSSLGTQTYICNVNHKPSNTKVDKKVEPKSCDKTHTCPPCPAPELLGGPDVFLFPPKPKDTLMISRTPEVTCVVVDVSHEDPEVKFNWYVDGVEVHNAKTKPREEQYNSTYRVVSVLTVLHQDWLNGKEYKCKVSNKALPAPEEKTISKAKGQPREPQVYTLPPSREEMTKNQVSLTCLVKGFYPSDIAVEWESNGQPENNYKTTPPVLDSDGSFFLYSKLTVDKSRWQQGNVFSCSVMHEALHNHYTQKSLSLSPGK
light: DIVMTQSPLSLPVTLGQPASISCRSSKSLLHSNGKIYLYWFQQRPGQSPRLLIYRMSNLASGVPDRFSGSGSGTDFTLKISRVEAEDVGVYYCMQHLEYPLTFGQGTKLEIKRTVAAPSVFIFPPSDEQLKSGTASVVCLLNNFYPREAKVQWKVDNALQSGNSQESVTEQDSKDSTYSLSSTLTLSKADYEKHKVYACEVTHQGLSSPVTKSFNRGEC
notes: as for B1
As for B14, the EC50 with cynomolgus monkey CCR8 came to 6.21 nM; with human CCR8 [1] it was 0.85 nM.

B15: PR004522 (antibody, human IgG1, kappa, V domains shown)
VH: EVQLVESGGGLVKPGGSLRLSCAASGFTFNTYAMNWVRQAPGKGLEWVGRIRSKSNNYATYYADSVKDRFTISRDDSKSTLYLQMNSLKTEDTAVYYCVRGKENGNYYAMDFWGQGTTVTVSS
VL: DIVMTQSPLSLPVTPGEPASISCRSSKSLLHSNGNTYLYWFLQKPGQSPQLLIYRMSNLASGVPDRFSGSGSGTDFTLKISRVEAEDVGVYYCMQHLEYPLTFGQGTKLEIKR
notes: as for B1
Turning to B15, the figures for the EC50 in the test with cynomolgus monkey CCR8 and in the test with human CCR8 [1] were 5.87 nM and 1.08 nM, respectively.

B16: PR004662 (antibody, human IgG1, kappa, V domains shown)
VH: EVQLVESGGGLVQPGGSLRLSCAASGFTFSTYAMNWVRQAPGKGLEWVSRIRSKSNNYATYYADSVKDRFTISRDDSKSTLYLQMNSLRAEDTAVYYCVRGKENANYYAMDFWGQGTTVTVSS
VL: DIVMTQSPLSLPVTPGEPASISCRSSKSLLHSNAKIYLYWFLQKPGQSPQLLIYRMSNLASGVPDRFSGSGSGTDFTLKISRVEAEDVGVYYCMQHLEYPLTFGQGTKLEIKR
notes: as for B5
For the molecule B16, the response with human CCR8 [3] was half-maximal at 0.681 nM (EC50).

(Values after patent publication US20240132603A1 (HARBOUR BIOMED US, published 2024).)
